Measurements taken from PMC11103110.

Experiments:
[1] = target: Lotus japonicus phytoglobin LjGlb3-1, recombinant (Lotus japonicus) (UniProt P0DO64); experiment: SDS-PAGE with immunoblot (anti-NO2-Tyr and protein-specific antibodies); recombinant protein (20 μM in the methods, 5–10 μM in the legend) incubated with 500 μM SIN-1 (peroxynitrite generator) for 2 h at 30 °C in 50 mM KPi pH 7.4; 15% SDS-PAGE
[2] = target: Lotus japonicus phytoglobin LjGlb3-1, recombinant (Lotus japonicus) (UniProt P0DO64); experiment: SDS-PAGE under non-reducing conditions with Coomassie staining and immunoblot; recombinant protein (20 μM in the methods, 10 μM in the legend) untreated, with 500 μM DTT or with 200–500 μM H2O2, 1 h, 50 mM KPi pH 7.4; 15% SDS-PAGE; DTT made the dimer almost totally disappear, H2O2 caused partial dimerization

Substance: Lotus japonicus phytoglobin LjGlb3-1, recombinant (from UniProt P0DO64 1-168) (natural protein)
- stoichiometry N [1]: 2
- stoichiometry N [2]: 2
